In the assay the target is T1, Human CD19-his protein (human, UniProt P15391 20-291).
T1 construct: bought protein; also called recombinant human CD19-His; CD19 full-length protein; not shown: His tag
T1 sequence (looked up): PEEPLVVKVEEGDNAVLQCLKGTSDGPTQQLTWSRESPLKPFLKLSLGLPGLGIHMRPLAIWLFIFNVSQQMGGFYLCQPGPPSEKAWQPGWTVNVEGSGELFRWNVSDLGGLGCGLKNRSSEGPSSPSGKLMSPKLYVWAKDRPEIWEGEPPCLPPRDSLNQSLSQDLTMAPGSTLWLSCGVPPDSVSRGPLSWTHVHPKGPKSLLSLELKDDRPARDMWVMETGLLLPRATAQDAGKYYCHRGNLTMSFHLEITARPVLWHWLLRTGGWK
Briefly: SPR Biacore, Ab captured on Protein A, CD19-His analyte. The method, then: A sample buffer and a running buffer were HBS-EP+ (10 mM HEPES, 150 mM NaCl, 3 mM EDTA and 0.05% surfactant P20) (GE Healthcare; BR-1006-69). The flow-through cell was set to 25° C. The sample block was set to 16° C. Both were pretreated with the running buffer. In each cycle, an antibody to be detected was first captured with a Protein A chip, and then a single concentration of CD19 antigen protein was injected. The binding and dissociation processes of the antibody and the antigen protein were recorded, and finally Glycine pH 1.5 (GE Healthcare; BR-1003-54) was used to complete chip regeneration. The binding was measured by injecting different concentrations of recombinant human CD19-His proteins in a solution for 240 s with a flow rate of 30 μl/min. The concentration started from 200 nM (see the detailed results for the actual concentration in the test) and was diluted at 1:1, making a total of 5 concentrations. The dissociation phase was monitored for up to 600 s and was triggered by switching from sample solution to running buffer. The surface was regenerated by washing with a 10 mM glycine solution (pH 1.5) for 30 s at a flow rate of 30 μl/min. Bulk refractive index difference was corrected by subtracting the response obtained from the goat anti-human Fc surface. Blank injection was also subtracted (=double reference). For calculation of apparent KD and other kinetic parameters, Langmuir 1:1 model was used.

In general, Kd refers to a measure of binding affinity in units of concentration. A high value points to a looser complex. What is called koff is a measure of how fast the partners let go of each other. Higher therefore signals a short-lived complex. Broadly, the kon is the rate constant with which the complex forms. High values mean faster complex formation, low ones slower complex formation.

B1: F5.11.2 (antibody, human IgG1, V domains shown)
VH: EVQLVESGGDLVKPGGSLKLSCAASGFTFSSYGMSWVRQTPDKRLEWVATISHGGSYTHYPDSVKGRFTISRDNAKNTLYLQMNSLKSEDTAMYYCVRLPITTVEAPYFFDYWGQGTTLTVSS
VL: DIQMTQTTSSLSASLGDRVTISCRASQDIRNYLNWYQQKPDGTVKLLIYYTSILHSGVPSRFSGSGSGTDYSLTINNLEQEDVATYFCQQGNTLYTFGGGTEVELR
notes: human-murine chimeric antibody, human IgG1 constant
The molecule B1 showed a dissociation constant (Kd) of 1.68 nM, a koff of 6.15e-05 s⁻¹ and a kon of 36600 M⁻¹ s⁻¹.

B2: F3.23.10 (antibody, human IgG1, V domains shown)
VH: EFQLQQSGPELVKPGASVKISCKASDYSFTDYNMNWVKQSNGASLEWIGIINPNFGSTSYNQKFKGKATLTVDQSSSTAFMQLNSLTSEDSAVYYCARSEYYGSSGFAYWGQGTLVTVSA
VL: DVVVTQTPLSLPVSFGDQVSISCRSSQSLVNSYGNTYLSWYLHKPGQSPQLLIYGISNRFSGVPDRFSGSGSGTDFTLKITTIKPEDLGMYYCLQGTHQPWTFGGGTKLEIK
notes: as for B1
Molecule B2 gave a Kd of 5.24 nM, an off-rate (koff) of 0.000186 s⁻¹ and an association rate constant (kon) of 35400 M⁻¹ s⁻¹.
